For one substance, EC50 and high-FRET dwell time, plateau results are on record in publication PMC10085991.

For experiment [1], the target named is β2 adrenergic receptor 148C-378C (min-C-β2AR with N148C and native C378) (human) (UniProt P07550). Put plainly: FRET or BRET; single-molecule FRET (TIRF), receptor immobilised by FLAG/M1 Fab; titration of Gs^GDP with 100 μM isoproterenol and 20 μM cmpd-6 (positive allosteric modulator); 25 °C.
For experiment [2] the target is unchanged. Put plainly: FRET or BRET; single-molecule FRET (TIRF), receptor immobilised by FLAG/M1 Fab; titration of Gs^GDP with 100 μM isoproterenol and 20 μM cmpd-15 (negative allosteric modulator); 25 °C.
For experiment [3] the target is unchanged. The experiment is described as follows: FRET or BRET; single-molecule FRET (TIRF) between labels at 148C and 378C of the receptor; receptor immobilised by N-terminal FLAG on biotinylated M1 Fab; Gs^GDP 3.16 nM to 10 μM in solution; 200 μM isoproterenol; 25 °C; 50 mM HEPES pH 7.5, 100 mM NaCl, 5 mM MgCl2, 5 mM CaCl2, 0.01% MNG, 0.001% CHS; apparent EC50 of low-FRET occupancy.

Turning to “Gs heterotrimer (human Gαs, rat Gβ1, bovine Gγ2) (from UniProt P63092 1-394; P54311 1-340; P63212 1-71) (complex)”, the figures for the EC50 in experiment [1], in experiment [2] and in experiment [3] were 26 nM, 350 nM and 100 nM, respectively. Further, the high-FRET dwell time, plateau at high Gs concentration in experiment [3] worked out at 2 s.
